Test results reported in patent US20180291110A1.

Biological target: complement factor C1q (Sigma, C1740) (UniProt P02745)
Assay: flow cytometry, C1q on antibody-coated BT-474 cells

complement factor C1q (Sigma, C1740), sequence (P02745 23-245, chain 1 of 3): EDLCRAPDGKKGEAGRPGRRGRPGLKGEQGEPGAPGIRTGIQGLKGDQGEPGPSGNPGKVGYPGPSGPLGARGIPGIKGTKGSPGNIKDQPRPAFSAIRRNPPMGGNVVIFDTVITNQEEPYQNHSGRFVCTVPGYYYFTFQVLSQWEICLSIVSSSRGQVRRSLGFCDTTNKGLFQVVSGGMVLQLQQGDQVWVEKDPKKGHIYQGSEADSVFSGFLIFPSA
complement factor C1q (Sigma, C1740), sequence (P02746 28-253, chain 2 of 3, further chain): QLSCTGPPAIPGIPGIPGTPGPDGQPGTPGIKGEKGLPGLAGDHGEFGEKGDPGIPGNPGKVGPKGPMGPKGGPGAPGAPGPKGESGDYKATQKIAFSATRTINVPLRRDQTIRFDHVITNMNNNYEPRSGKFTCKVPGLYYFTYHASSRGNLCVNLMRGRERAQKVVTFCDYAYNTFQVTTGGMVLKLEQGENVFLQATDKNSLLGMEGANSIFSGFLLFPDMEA
complement factor C1q (Sigma, C1740), sequence (P02747 29-245, chain 3 of 3, further chain): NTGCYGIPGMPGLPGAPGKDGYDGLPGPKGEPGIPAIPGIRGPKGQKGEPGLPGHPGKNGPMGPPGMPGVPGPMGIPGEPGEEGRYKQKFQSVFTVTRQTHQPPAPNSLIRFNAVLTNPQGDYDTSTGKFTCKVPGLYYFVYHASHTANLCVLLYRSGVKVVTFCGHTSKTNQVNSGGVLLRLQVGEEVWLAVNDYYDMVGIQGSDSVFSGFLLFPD

- PE-signal (geomean): 2160
Substance: combination of trastuzumab and pertuzumab
